According to paper doi:10.1101/2020.12.20.423689 (bioRxiv, 2020):

Molecular target: mitoribosomal protein uL12m (human, UniProt P52815 37-198)
Test: cryo-EM structure

B1: human mitochondrial elongation factor G2 (EF-G2mt) (natural protein)
chain: MLTNLRIFAMSHQTIPSVYINNICCYKIRASLKRLKPHVPLGRNCSSLPGLIGNDIKSLHSIINPPIAKIRNIGIMAHIDAGKTTTTERILYYSGYTRSLGDVDDGDTVTDFMAQERERGITIQSAAVTFDWKGYRVNLIDTPGHVDFTLEVERCLRVLDGAVAVFDASAGVEAQTLTVWRQADKHNIPRICFLNKMDKTGASFKYAVESIREKLKAKPLLLQLPIGEAKTFKGVVDVVMKEKLLWNCNSNDGKDFERKPLLEMNDPELLKETTEARNALIEQVADLDDEFADLVLEEFSENFDLLPAEKLQTAIHRVTLAQTAVPVLCGSALKNKGIQPLLDAVTMYLPSPEERNYEFLQWYKDDLCALAFKVLHDKQRGPLVFMRIYSGTIKPQLAIHNINGNCTERISRLLLPFADQHVEIPSLTAGNIALTVGLKHTATGDTIVSSKSSALAAARRAEREGEKKHRQNNEAERLLLAGVEIPEPVFFCTIEPPSLSKQPDLEHALKCLQREDPSLKVRLDPDSGQTVLCGMGELHIEIIHDRIKREYGLETYLGPLQVAYRETILNSVRATDTLDRTLGDKRHLVTVEVEARPIETSSVMPVIEFEYAESINEGLLKVSQEAIENGIHSACLQGPLLGSPIQDVAITLHSLTIHPGTSTTMISACVSRCVQKALKKADKQVLEPLMNLEVTVARDYLSPVLADLAQRRGNIQEIQTRQDNKVVIGFVPLAEIMGYSTVLRTLTSGSATFALELSTYQAMNPQDQNTLLNRRSGLT
**Q.** Does B1 bind?
**A.** binds
